Source: patent US20200054764A1, “MEDICAL USE OF ANTI-C MET ANTIBODY-CYTOTOXIC DRUG CONJUGATE” (priority 2016, published 2020)

Assays:
[1] = system: a variety of human tumor cell lines; details: background statement; cited from earlier work
[2] = biological target: human c-Met on MKN45 cells (human) (UniProt P08581); test: cell-based or functional assay
[3] = biological target: T1, human c-Met ECD his tag (Human c-Met ECD-His) recombinant protein (human, UniProt P08581 25-932); test: ELISA, plate coated with human c-Met-His at 2 ug/mL
T1 construct: extracellular domain; It was expressed in 293F cells; Natural c-Met is cleaved into alpha and beta subunits; also called human c-Met-His; not shown: C-terminal His tag
T1 sequence (P08581 25-932): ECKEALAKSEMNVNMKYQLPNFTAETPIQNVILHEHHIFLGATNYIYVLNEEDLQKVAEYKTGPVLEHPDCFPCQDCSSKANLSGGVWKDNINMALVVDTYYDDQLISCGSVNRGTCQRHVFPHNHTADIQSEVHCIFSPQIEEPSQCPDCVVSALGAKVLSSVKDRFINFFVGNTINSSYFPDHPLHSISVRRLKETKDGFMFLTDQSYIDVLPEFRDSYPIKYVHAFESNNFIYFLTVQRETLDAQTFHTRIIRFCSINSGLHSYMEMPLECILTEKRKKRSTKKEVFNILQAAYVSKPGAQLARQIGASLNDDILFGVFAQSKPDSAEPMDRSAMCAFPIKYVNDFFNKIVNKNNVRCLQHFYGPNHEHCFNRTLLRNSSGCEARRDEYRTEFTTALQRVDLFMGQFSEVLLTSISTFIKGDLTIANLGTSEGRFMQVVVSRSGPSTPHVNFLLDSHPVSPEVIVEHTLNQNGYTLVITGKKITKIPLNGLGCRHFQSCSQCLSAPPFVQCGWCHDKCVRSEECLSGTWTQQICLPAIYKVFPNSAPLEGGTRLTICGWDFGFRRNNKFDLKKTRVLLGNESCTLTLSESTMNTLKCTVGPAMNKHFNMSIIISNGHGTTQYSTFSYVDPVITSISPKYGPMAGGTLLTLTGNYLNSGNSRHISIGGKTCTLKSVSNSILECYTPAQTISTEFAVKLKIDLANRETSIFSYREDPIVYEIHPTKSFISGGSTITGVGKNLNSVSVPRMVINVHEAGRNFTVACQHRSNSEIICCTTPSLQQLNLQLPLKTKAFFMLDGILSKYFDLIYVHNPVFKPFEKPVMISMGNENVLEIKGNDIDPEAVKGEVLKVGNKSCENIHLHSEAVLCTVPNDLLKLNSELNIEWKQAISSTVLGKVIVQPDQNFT

human c-Met-His = biological target: T2, human c-Met-His (Homo sapiens, UniProt P08581); test: ELISA binding of c-Met antibody to c-Met antigen; details: hybridoma clones, ELISA, OD450
T2 construct: His tag (6xHis) (C); made in house; host or cells: 293F cells (Invitrogen, Cat # R790-07); vector pEE6.4; c-Met gene template origene RC217003
T2 sequence (P08581 with tags, fused parts or gaps limits assumed): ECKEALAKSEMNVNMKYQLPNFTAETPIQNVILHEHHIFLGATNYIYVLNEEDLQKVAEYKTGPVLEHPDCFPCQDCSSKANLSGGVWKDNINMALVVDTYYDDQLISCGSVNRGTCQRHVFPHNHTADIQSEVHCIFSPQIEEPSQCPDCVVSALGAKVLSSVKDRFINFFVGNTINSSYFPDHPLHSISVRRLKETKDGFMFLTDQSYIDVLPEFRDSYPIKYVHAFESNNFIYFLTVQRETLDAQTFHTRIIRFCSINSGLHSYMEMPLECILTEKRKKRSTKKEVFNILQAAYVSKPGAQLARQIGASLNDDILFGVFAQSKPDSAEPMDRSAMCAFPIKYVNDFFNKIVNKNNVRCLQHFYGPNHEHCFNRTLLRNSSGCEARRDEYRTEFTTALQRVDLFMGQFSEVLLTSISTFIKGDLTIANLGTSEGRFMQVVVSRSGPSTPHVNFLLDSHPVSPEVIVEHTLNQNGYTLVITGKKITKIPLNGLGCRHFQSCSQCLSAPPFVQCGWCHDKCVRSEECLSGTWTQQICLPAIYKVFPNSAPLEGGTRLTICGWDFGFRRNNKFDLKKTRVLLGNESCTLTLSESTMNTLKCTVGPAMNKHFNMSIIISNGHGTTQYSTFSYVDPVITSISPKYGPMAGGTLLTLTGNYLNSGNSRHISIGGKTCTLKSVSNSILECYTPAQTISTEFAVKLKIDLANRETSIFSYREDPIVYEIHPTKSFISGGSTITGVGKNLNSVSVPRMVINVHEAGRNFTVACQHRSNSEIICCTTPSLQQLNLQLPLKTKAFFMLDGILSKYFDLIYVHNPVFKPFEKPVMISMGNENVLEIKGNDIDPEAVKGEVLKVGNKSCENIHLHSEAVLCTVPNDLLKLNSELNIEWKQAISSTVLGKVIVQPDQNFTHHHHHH
Experimental: This experiment uses enzyme linked immunosorbent assay to detect affinity of c-Met antibody (including supermatant of hybridonma or recombinant expressed monoclonal antibodies) to c-Met antigen in vitro.
Experimental procedures: Coating buffer (PBS; Hyclone, Cat No.: SH30256.01B) was used to dilute antigen (human c-Met-His, example 1) to 2 μg/mL, which was added to a 96-well microplate at 100 μL/well (Costar 9018, Cat No.:03113024) and incubated overnight at 4° C. […] The plate was read with plate reader at 450 nm.
Murine anti-human c-Met monoclonal cell lines were obtained by immunizing mice, fusion of spleen cells, and screening of hybridomas. […] After the first booster immunization, mice serum was collected during 7 to 10 days after each booster immunization, and the titer was detected by ELISA (Methods were described in Example 2).
After immunization, mice with a serum titer higher than 1:10^5 were selected for cell fusion. Mouse B-cells and myeloma cells (SP2/0, ATCC number:CRL-1581™) were prepared respectively in aseptic conditions and counted. […] The next day, positive clones were detected by ELISA (see Methods in Example 2).

Sequence of human c-Met on MKN45 cells (human) (P08581 25-1390): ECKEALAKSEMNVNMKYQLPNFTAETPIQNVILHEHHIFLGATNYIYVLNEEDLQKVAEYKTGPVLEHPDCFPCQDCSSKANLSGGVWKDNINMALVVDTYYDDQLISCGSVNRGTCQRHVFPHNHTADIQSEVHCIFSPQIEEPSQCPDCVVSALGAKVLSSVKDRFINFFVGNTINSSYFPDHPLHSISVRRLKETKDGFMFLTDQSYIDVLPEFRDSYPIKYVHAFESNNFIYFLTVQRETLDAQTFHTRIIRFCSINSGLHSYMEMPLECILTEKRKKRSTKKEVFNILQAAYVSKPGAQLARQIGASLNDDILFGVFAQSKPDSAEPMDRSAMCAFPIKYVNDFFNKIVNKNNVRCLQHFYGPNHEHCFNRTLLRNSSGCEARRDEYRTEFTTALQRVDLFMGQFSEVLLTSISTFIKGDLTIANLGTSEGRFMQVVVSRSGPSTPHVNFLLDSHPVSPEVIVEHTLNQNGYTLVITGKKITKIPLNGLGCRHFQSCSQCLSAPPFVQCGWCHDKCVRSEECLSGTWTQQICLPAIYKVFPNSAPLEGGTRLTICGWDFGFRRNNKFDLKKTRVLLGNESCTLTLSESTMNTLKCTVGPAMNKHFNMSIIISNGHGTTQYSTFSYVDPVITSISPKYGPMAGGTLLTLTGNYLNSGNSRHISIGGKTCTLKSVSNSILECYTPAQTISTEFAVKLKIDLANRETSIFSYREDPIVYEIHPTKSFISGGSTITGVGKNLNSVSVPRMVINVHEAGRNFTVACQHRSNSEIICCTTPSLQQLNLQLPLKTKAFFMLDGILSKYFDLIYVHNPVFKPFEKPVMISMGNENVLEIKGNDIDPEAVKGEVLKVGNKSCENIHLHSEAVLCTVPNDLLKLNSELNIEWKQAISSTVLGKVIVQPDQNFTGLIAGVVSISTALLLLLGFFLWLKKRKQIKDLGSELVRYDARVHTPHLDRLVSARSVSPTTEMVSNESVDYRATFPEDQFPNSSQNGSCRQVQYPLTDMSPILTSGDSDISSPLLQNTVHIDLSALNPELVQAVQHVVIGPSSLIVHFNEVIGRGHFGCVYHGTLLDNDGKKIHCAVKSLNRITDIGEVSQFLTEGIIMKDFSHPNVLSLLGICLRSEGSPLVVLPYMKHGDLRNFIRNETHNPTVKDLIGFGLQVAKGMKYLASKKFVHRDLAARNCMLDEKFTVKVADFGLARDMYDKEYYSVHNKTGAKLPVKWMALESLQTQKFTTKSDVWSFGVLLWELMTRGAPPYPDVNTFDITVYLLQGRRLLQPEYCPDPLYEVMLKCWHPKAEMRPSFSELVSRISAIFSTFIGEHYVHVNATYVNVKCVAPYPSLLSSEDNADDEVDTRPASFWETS

For `CC[C@H](C)C([C@@H](CC(=O)N1CCC[C@H]1[C@H](OC)[C@@H](C)C(=O)N[C@H](C)[C@@H](O)c1ccccc1)OC)N(C)C(=O)[C@@H](NC(=O)[C@@H](NC)C(C)C)C(C)C` (some centres unmarked) [MMAE, Monomethyl auristatin E], the “inhibitory activities against a variety of human tumor cell lines” value [1] is listed as “less than one nanomolar”.

For hIgG (control) (antibody), the endocytosis % (0 h) [2] was 0%, the endocytosis % (0.5 h) [2] was -0.9% and the endocytosis % (1 h) [2] was -4.4%. For the same molecule, the endocytosis % (2 h) [2] was -4.9% and the endocytosis % (4 h) [2] was 3.6%.

B1: Ab-11 humanized antibody (antibody, human IgG2, kappa, V domains shown)
VH: QVQLVESGGGVVQPGRSLRLSCAASGFTLPNYGVHWVRQAPGKGLEWLAVIWSGGSTNYAAAFVSRLTISKDNSKNTVYLQMNSLRAEDTAVYYCARNHDNPYNYAMDYWGQGTTVTVSS
VL: DIVLTQSPDSLAVSLGERATINCRANKSVSTSTYNYLHWYQQKPGQPPKLLIYLASNLASGVPDRFSGSGSGTDFTLTISSLQAEDVAVYYCQHSRDLPPTFGQGTKLEIKR
notes: Full-length humanized antibody
In the case of B1, the EC50 [3] is reported as 200 pM.

B2: Ab-5 (antibody, V domains shown)
VH: QVQLKQSGPGLVQPSQSLSITCTVSGFSLPNYGVHWVRQSPGKGLEWLGVIWSGGSTNYAAAFVSRLRISKDNSKSQVFFEMNSLQADDTAVYYCARNHDNPYNYAMDYWGQGTTVTVSS
VL: DIVLTQSPGSLAVYLGQRATISCRANKSVSTSTYNYLHWYQQKPGQPPKLLIYLASNLASGVPARFSGSGSGTDFTLNIHPLEEEDAATYYCQHSRDLPPTFGAGTKLELKR
With B2 the “Detection Results (OD450)” value (human c-Met-His) was 1.64.
